Target: marh2_human MARCHF2 (UniProt Q9P0N8)
Sequence (Q9P0N8 whole entry): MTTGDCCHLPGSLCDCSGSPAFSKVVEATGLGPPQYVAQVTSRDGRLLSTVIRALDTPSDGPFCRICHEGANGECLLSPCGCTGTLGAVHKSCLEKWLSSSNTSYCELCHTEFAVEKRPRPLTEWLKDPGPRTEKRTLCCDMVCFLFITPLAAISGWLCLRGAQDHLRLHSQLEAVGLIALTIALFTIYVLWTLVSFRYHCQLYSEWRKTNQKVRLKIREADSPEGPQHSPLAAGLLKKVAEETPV

Sequence of Endoplasmic reticulum-Golgi intermediate compartment protein 3 (Homo sapiens), Q9Y282 K6R;K8R (Q9Y282 whole entry K6R/K8R): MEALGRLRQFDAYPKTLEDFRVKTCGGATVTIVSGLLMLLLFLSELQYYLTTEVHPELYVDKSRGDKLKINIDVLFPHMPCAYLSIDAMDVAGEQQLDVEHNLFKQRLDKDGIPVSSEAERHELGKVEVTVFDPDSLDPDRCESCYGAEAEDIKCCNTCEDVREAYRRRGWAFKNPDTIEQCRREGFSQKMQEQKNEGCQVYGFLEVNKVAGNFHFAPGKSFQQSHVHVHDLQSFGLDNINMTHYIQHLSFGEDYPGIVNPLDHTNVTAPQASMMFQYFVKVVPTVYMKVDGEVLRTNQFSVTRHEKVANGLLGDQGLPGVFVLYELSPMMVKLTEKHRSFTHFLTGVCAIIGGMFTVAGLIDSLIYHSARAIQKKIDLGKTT

Endoplasmic reticulum-Golgi intermediate compartment protein 3 (Homo sapiens), Q9Y282 K6R;K8R
effect of a mutation on the interaction: with no effect
